Target: mTOR^ΔN-mLST8 complex (human) (UniProt P42345)

## S6K1^367–404 wild type (from UniProt P23443-2 367-404) (peptide)
  KM of S6K1^367–404 phosphorylation by mTOR^ΔN-mLST8: 430 µM
